Laboratory results from PMC10873347.
Values belong to the substance of their own block, whether it stands above or below them.

Target: actin (pyrene-labeled filaments)
Test: pyrene-actin fluorescence quenching titration
Settings: sites S3

Chain of human cofilin-1 (from UniProt P23528) cofilin S3D,G4F (P23528 whole entry, looked up, stated change not applied): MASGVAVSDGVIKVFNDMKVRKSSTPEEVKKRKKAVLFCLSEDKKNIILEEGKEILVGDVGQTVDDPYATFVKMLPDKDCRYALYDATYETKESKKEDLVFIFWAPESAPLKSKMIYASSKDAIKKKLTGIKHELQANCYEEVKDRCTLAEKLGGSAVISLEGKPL
Chain of human cofilin-1 (from UniProt P23528) cofilin S3D (P23528 whole entry, looked up, stated change not applied): as above
Chain of human cofilin-1 (from UniProt P23528) cofilin S3D,G4L (P23528 whole entry, looked up, stated change not applied): as above

- other: K0.5 (reference: cofilin WT): weaker; reference 0.61
Substance: human cofilin-1 (from UniProt P23528) cofilin S3D

- other: K0.5 (reference: cofilin G4L): same; reference 0.59
Substance: human cofilin-1 (from UniProt P23528) cofilin S3D,G4L

- other: K0.5 (reference: cofilin G4F): same; reference 1.0
Substance: human cofilin-1 (from UniProt P23528) cofilin S3D,G4F
